The values that follow are results of earlier work, collected in publication PMC5576018.

In general, Kd refers to a measure of binding affinity in units of concentration.

In this data set the target is CSL (Homo sapiens) (UniProt Q06330).
UniProt Q06330, sequence (Q06330 whole entry): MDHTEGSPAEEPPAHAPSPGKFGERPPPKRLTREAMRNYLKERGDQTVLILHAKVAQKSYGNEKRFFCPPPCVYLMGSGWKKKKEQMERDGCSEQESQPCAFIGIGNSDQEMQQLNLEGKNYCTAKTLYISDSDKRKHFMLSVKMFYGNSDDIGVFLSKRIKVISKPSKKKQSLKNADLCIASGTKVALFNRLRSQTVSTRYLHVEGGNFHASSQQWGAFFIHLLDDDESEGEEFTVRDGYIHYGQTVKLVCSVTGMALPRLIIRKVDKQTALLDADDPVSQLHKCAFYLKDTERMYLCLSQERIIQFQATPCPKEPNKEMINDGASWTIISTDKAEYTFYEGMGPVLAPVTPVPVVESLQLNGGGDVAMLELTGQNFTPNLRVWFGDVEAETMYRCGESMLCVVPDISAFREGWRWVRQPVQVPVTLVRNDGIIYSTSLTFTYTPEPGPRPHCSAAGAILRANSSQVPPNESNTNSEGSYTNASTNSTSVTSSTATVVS

As to Notch RAM RAM (from UniProt P46531), the Kd is 22 nM.
